In patent US20260234222A1 (LEYDEN LABORATORIES B V, published 2026):
Where two headings read alike, the source gives them in different places.

Assays:
Experiment in all cases: cell-based or functional assay
[1] = target: SARS-CoV-2 Delta Spike antigen (SARS-CoV-2 Delta)
[2] = target: T1, SARS-CoV-2 Omicron BA.4/5 spike (SARS-CoV-2 Omicron BA.4/5)
[3] = target: SARS-CoV-2 Omicron XBB.1.1 spike (SARS-CoV-2 Omicron XBB.1.1)
[4] = target: SARS-CoV-2 Delta Spike antigen (SARS-CoV-2 Delta); remark: listed apart in the source
[5] = target: T1, SARS-CoV-2 Omicron BA.4/5 spike; remark: listed apart in the source
[6] = target: T1, SARS-CoV-2 Omicron BA.4/5 spike; remark: listed apart in the source

B1: Bispecific 1 (bispecific antibody)
heavy 1: not shown
light 1: EIVLTQSPGTLSLSPGERATLSCRASQSVRRNYFAWYQQKRGQAPRLLIYDASTRATGIPDRFSGSGSGTDFTLTISRLEPEDFAVYYCQQYDSSPPMYIFGQGTKLEIKSSASTKGPSVFPLAPSSKSTSGGTAALGCLVKDYFPEPVTVSWNSGALTSGVHTFPAVLQSSGLYSLSSVVTVPSSSLGTQTYICNVNHKPSNTKVDKKVEPKSC
heavy 2: not shown
light 2: QSALTQPPSASGSPGQSVTISCSGTSSDVGGYNFVSWYQHHPGKAPKILIYEVTKRPSGVPDRFSGSKSGNTASLTVSGLQAEDEADYYCSSYGGTNNLLFGGGTKLTVLGQPKAAPSVTLFPPSSEELQANKATLVCLISDFYPGAVTVAWKADSSPVKAGVETTTPSKQSNNKYAASSYLSLTPEQWKSHRSYSCQVTHEGSTVEKTVAPTECS
- Pseudovirion neutralization IC50 [1]: 0.307 µg/mL
- Pseudovirion neutralization IC50 [2]: 5.14 µg/mL
- Pseudovirion neutralization IC50 [3]: 11.9 µg/mL
- Live virus neutralization IC50 [4]: 14.2 µg/mL
- Live virus neutralization IC50 [5]: 4.85 µg/mL

B2: Parental mAb 1 (antibody, V domains shown)
VH: QEQLVQSGAEVKKPGASVKVSCKSSGFTFSYFYLHWVRQAPGQGLEWMGIINPRGDGTRYAQKFQGRVTMTRDASTGTLYMELRSLRSEDTAVYYCARGADHGAFDIWGQGTMVTVSS
VL: EIVLTQSPGTLSLSPGERATLSCRASQSVRRNYFAWYQQKRGQAPRLLIYDASTRATGIPDRFSGSGSGTDFTLTISRLEPEDFAVYYCQQYDSSPPMYIFGQGTKLEIK
notes: also called antibody according to the invention; first parental antibody
- Pseudovirion neutralization IC50 [6]: 4.13 µg/mL
- Pseudovirion neutralization IC50 [2]: 4.13 µg/mL
- Pseudovirion neutralization IC50 [3]: 4.85 µg/mL
- Live virus neutralization IC50 [5]: 2.92 µg/mL

B3: Parental mAb 2 (antibody, V domains shown)
VH: QMQLMQSGAEVKKPGASVTVSCKASGDTFSDYRIHWVRQAPGQGLEWMGRMNPKSGDTNFAQKFQGRVTMTRDMSINTAYMTLSGLTFDDTALYYCASLLIVGGFDPLDDFEVWGQGTMVTISS
VL: QSALTQPPSASGSPGQSVTISCSGTSSDVGGYNFVSWYQHHPGKAPKILIYEVTKRPSGVPDRFSGSKSGNTASLTVSGLQAEDEADYYCSSYGGTNNLLFGGGTKLTVL
- Pseudovirion neutralization IC50 [1]: 0.488 µg/mL
- Pseudovirion neutralization IC50 [2]: 7.56 µg/mL
- Pseudovirion neutralization IC50 [3]: 20.6 µg/mL
- Live virus neutralization IC50 [4]: 16.1 µg/mL
- Live virus neutralization IC50 [5]: 4.62 µg/mL
